Data reported in the array DNA melting data of Ke et al..

Test: melting temperature; melt of duplexes
Settings: sodium 0.0675 M; strand 1 µM
Work on “CGACGTGCTTAATGTGCTG+CAGCACATGGAGCACGTCG (((((((((..((((((((+))))))))..)))))))))” yielded a Tm of 54.4 °C.
With “CGACGTGCTATATGTGCTG+CAGCACATGGTGCACGTCG ((((((((...((((((((+))))))))...))))))))” the Tm was 47.7 °C.
For “CGACGTGCATTATGTGCTG+CAGCACATCCTGCACGTCG (((((((((..((((((((+))))))))..)))))))))”, the Tm was 49.9 °C.
For “CGACGTGCCAAATGTGCTG+CAGCACATCGGGCACGTCG (((((((((..((((((((+))))))))..)))))))))”, the Tm was 54.3 °C.
For “CGACGTGCCACATGTGCTG+CAGCACATGACGCACGTCG ((((((((..(((((((((+)))))))))..))))))))”, the Tm was 49.5 °C.
In the case of “CGACGTGCCCGATGTGCTG+CAGCACATCCAGCACGTCG ((((((((..(((((((((+)))))))))..))))))))”, the Tm is reported as 52.7 °C.
Substance “CGACGTGCGCGATGTGCTG+CAGCACATTGGGCACGTCG ((((((((.(.((((((((+)))))))).).))))))))” has a Tm of 57.1 °C.
“CGACGTGCTAAATGTGCTG+CAGCACATCCTGCACGTCG ((((((((...((((((((+))))))))...))))))))” gave a Tm of 49 °C.
For “CGACGTGCATTATGTGCTG+CAGCACATAAAGCACGTCG ((((((((.((((((((((+)))))))))).))))))))”, the Tm was 54.6 °C.
“CGACGTGCGGGATGTGCTG+CAGCACATCTCGCACGTCG (((((((((.(((((((((+))))))))).)))))))))” showed a Tm of 62.3 °C.
Work on “CGACGTGCTACATGTGCTG+CAGCACATGACGCACGTCG ((((((((..(((((((((+)))))))))..))))))))” yielded a Tm of 50.8 °C.
With “CGACGTGCCAAATGTGCTG+CAGCACATTTGGCACGTCG (((((((((((((((((((+)))))))))))))))))))” the Tm was 64.5 °C.
Work on “CGACGTGCAAAATGTGCTG+CAGCACATTCCGCACGTCG ((((((((..(((((((((+)))))))))..))))))))” yielded a Tm of 50.6 °C.
Work on “CGACGTGCCACATGTGCTG+CAGCACATAACGCACGTCG ((((((((...((((((((+))))))))...))))))))” yielded a Tm of 47.1 °C.
“CGACGTGCGCCATGTGCTG+CAGCACATACAGCACGTCG ((((((((...((((((((+))))))))...))))))))” gave a Tm of 51.3 °C.
In the case of “CGACGTGCGTTATGTGCTG+CAGCACATAGCGCACGTCG (((((((((.(((((((((+))))))))).)))))))))”, the Tm is reported as 58.3 °C.
Substance “CGACGTGCCTGATGTGCTG+CAGCACATCACGCACGTCG ((((((((.((((((((((+)))))))))).))))))))” has a Tm of 55.5 °C.
Substance “CGACGTGCCCAATGTGCTG+CAGCACATGAGGCACGTCG (((((((((..((((((((+))))))))..)))))))))” has a Tm of 56.1 °C.
In the case of “CGACGTGCGAAATGTGCTG+CAGCACATTGAGCACGTCG ((((((((..(((((((((+)))))))))..))))))))”, the Tm is reported as 61.3 °C.
For “CGACGTGCAGGATGTGCTG+CAGCACATCATGCACGTCG (((((((((.(((((((((+))))))))).)))))))))”, the Tm was 60.2 °C.
“CGACGTGCTTTATGTGCTG+CAGCACATCATGCACGTCG ((((((((.(.((((((((+)))))))).).))))))))” gave a Tm of 49.2 °C.
In the case of “CGACGTGCACAATGTGCTG+CAGCACATAAAGCACGTCG ((((((((...((((((((+))))))))...))))))))”, the Tm is reported as 47.4 °C.
“CGACGTGCTTGATGTGCTG+CAGCACATGATGCACGTCG ((((((((.(.((((((((+)))))))).).))))))))” gave a Tm of 51.6 °C.
Substance “CGACGTGCTATATGTGCTG+CAGCACATAACGCACGTCG ((((((((..(((((((((+)))))))))..))))))))” has a Tm of 50.8 °C.
“CGACGTGCCGGATGTGCTG+CAGCACATCGCGCACGTCG ((((((((..(((((((((+)))))))))..))))))))” showed a Tm of 55.4 °C.
In the case of “CGACGTGCCTGATGTGCTG+CAGCACATTGCGCACGTCG ((((((((...((((((((+))))))))...))))))))”, the Tm is reported as 49.3 °C.
Work on “CGACGTGCGAGATGTGCTG+CAGCACATCCAGCACGTCG ((((((((..(((((((((+)))))))))..))))))))” yielded a Tm of 56.5 °C.
“CGACGTGCGCAATGTGCTG+CAGCACATATTGCACGTCG ((((((((...((((((((+))))))))...))))))))” gave a Tm of 49.2 °C.
With “CGACGTGCCGAATGTGCTG+CAGCACATTTGGCACGTCG (((((((((.(((((((((+))))))))).)))))))))” the Tm was 60.6 °C.
Work on “CGACGTGCACGATGTGCTG+CAGCACATTGGGCACGTCG ((((((((.(.((((((((+)))))))).).))))))))” yielded a Tm of 56.4 °C.
Substance “CGACGTGCGTGATGTGCTG+CAGCACATCCCGCACGTCG (((((((((.(((((((((+))))))))).)))))))))” has a Tm of 59.4 °C.
“CGACGTGCCTCATGTGCTG+CAGCACATGAAGCACGTCG ((((((((.((((((((((+)))))))))).))))))))” showed a Tm of 56.3 °C.
“CGACGTGCCTGATGTGCTG+CAGCACATACTGCACGTCG ((((((((...((((((((+))))))))...))))))))” showed a Tm of 48.4 °C.
With “CGACGTGCCGAATGTGCTG+CAGCACATCACGCACGTCG ((((((((...((((((((+))))))))...))))))))” the Tm was 48.9 °C.
“CGACGTGCTATATGTGCTG+CAGCACATTCCGCACGTCG ((((((((...((((((((+))))))))...))))))))” gave a Tm of 47.8 °C.
In the case of “CGACGTGCGATATGTGCTG+CAGCACATCTGGCACGTCG ((((((((.(.((((((((+)))))))).).))))))))”, the Tm is reported as 50 °C.
“CGACGTGCATAATGTGCTG+CAGCACATGATGCACGTCG ((((((((((.((((((((+)))))))).))))))))))” showed a Tm of 56.8 °C.
Substance “CGACGTGCGCCATGTGCTG+CAGCACATAGGGCACGTCG ((((((((.(.((((((((+)))))))).).))))))))” has a Tm of 52.8 °C.
For “CGACGTGCGTTATGTGCTG+CAGCACATGGTGCACGTCG ((((((((...((((((((+))))))))...))))))))”, the Tm was 48.3 °C.
With “CGACGTGCACTATGTGCTG+CAGCACATTATGCACGTCG (((((((((..((((((((+))))))))..)))))))))” the Tm was 46.2 °C.
“CGACGTGCTCGATGTGCTG+CAGCACATCCCGCACGTCG ((((((((..(((((((((+)))))))))..))))))))” showed a Tm of 52.1 °C.
In the case of “CGACGTGCACTATGTGCTG+CAGCACATCACGCACGTCG ((((((((...((((((((+))))))))...))))))))”, the Tm is reported as 43.3 °C.
“CGACGTGCAAAATGTGCTG+CAGCACATTACGCACGTCG ((((((((..(((((((((+)))))))))..))))))))” showed a Tm of 51.5 °C.
For “CGACGTGCAAAATGTGCTG+CAGCACATCTAGCACGTCG ((((((((.(.((((((((+)))))))).).))))))))”, the Tm was 49.5 °C.
Work on “CGACGTGCTCCATGTGCTG+CAGCACATCATGCACGTCG ((((((((...((((((((+))))))))...))))))))” yielded a Tm of 47.7 °C.
“CGACGTGCGTCATGTGCTG+CAGCACATTGCGCACGTCG (((((((((..((((((((+))))))))..)))))))))” showed a Tm of 54.7 °C.
Work on “CGACGTGCAAAATGTGCTG+CAGCACATCAGGCACGTCG ((((((((...((((((((+))))))))...))))))))” yielded a Tm of 49.4 °C.
Work on “CGACGTGCTCGATGTGCTG+CAGCACATGACGCACGTCG ((((((((...((((((((+))))))))...))))))))” yielded a Tm of 47.4 °C.
In the case of “CGACGTGCCCCATGTGCTG+CAGCACATCAAGCACGTCG ((((((((...((((((((+))))))))...))))))))”, the Tm is reported as 47.3 °C.
Work on “CGACGTGCTCAATGTGCTG+CAGCACATTGGGCACGTCG ((((((((.((((((((((+)))))))))).))))))))” yielded a Tm of 60.1 °C.
In the case of “CGACGTGCACTATGTGCTG+CAGCACATATTGCACGTCG (((((((((.(((((((((+))))))))).)))))))))”, the Tm is reported as 51.5 °C.
“CGACGTGCGGGATGTGCTG+CAGCACATATTGCACGTCG ((((((((...((((((((+))))))))...))))))))” showed a Tm of 51.4 °C.
With “CGACGTGCTGTATGTGCTG+CAGCACATAATGCACGTCG ((((((((..(((((((((+)))))))))..))))))))” the Tm was 51.5 °C.
For “CGACGTGCAATATGTGCTG+CAGCACATCTCGCACGTCG ((((((((.(.((((((((+)))))))).).))))))))”, the Tm was 48.4 °C.
“CGACGTGCAAAATGTGCTG+CAGCACATTTGGCACGTCG ((((((((.((((((((((+)))))))))).))))))))” gave a Tm of 57.6 °C.
“CGACGTGCTTCATGTGCTG+CAGCACATAAGGCACGTCG ((((((((.(.((((((((+)))))))).).))))))))” showed a Tm of 50.6 °C.
In the case of “CGACGTGCAGTATGTGCTG+CAGCACATTCCGCACGTCG ((((((((.(.((((((((+)))))))).).))))))))”, the Tm is reported as 50.1 °C.
For “CGACGTGCGCTATGTGCTG+CAGCACATCCGGCACGTCG ((((((((...((((((((+))))))))...))))))))”, the Tm was 48.1 °C.
In the case of “CGACGTGCAATATGTGCTG+CAGCACATGTTGCACGTCG ((((((((((.((((((((+)))))))).))))))))))”, the Tm is reported as 58.4 °C.
In the case of “CGACGTGCACAATGTGCTG+CAGCACATCTGGCACGTCG ((((((((...((((((((+))))))))...))))))))”, the Tm is reported as 47.5 °C.
“CGACGTGCGATATGTGCTG+CAGCACATTCGGCACGTCG ((((((((...((((((((+))))))))...))))))))” showed a Tm of 52.7 °C.
In the case of “CGACGTGCACAATGTGCTG+CAGCACATATTGCACGTCG (((((((((..((((((((+))))))))..)))))))))”, the Tm is reported as 48 °C.
“CGACGTGCATGATGTGCTG+CAGCACATTTGGCACGTCG ((((((((...((((((((+))))))))...))))))))” gave a Tm of 50.3 °C.
For “CGACGTGCGCCATGTGCTG+CAGCACATGGGGCACGTCG ((((((((.((((((((((+)))))))))).))))))))”, the Tm was 63.2 °C.
“CGACGTGCACGATGTGCTG+CAGCACATCGTGCACGTCG (((((((((((((((((((+)))))))))))))))))))” showed a Tm of 65.4 °C.
“CGACGTGCCGCATGTGCTG+CAGCACATGTTGCACGTCG ((((((((..(((((((((+)))))))))..))))))))” showed a Tm of 54.5 °C.
In the case of “CGACGTGCCGAATGTGCTG+CAGCACATCCAGCACGTCG ((((((((.(.((((((((+)))))))).).))))))))”, the Tm is reported as 49.8 °C.
Work on “CGACGTGCGACATGTGCTG+CAGCACATCGCGCACGTCG (((((((((..((((((((+))))))))..)))))))))” yielded a Tm of 54.1 °C.
With “CGACGTGCACAATGTGCTG+CAGCACATCCGGCACGTCG ((((((((...((((((((+))))))))...))))))))” the Tm was 46.1 °C.
In the case of “CGACGTGCCGCATGTGCTG+CAGCACATGTCGCACGTCG ((((((((..(((((((((+)))))))))..))))))))”, the Tm is reported as 54.3 °C.
In the case of “CGACGTGCCTAATGTGCTG+CAGCACATCCGGCACGTCG (((((((((..((((((((+))))))))..)))))))))”, the Tm is reported as 52 °C.
Substance “CGACGTGCCCGATGTGCTG+CAGCACATAACGCACGTCG ((((((((...((((((((+))))))))...))))))))” has a Tm of 47.6 °C.
